The results in this text go back to patent US20220057408A1.

This assay has as its target CD3 (Homo sapiens (Human)) (UniProt P07766). Kind of assay: IHC on tissue (human tonsil), 1ug/mL primary antibody, detected with Goat Anti-rabbit-HRP/DAB; 6 ROIs, 3 tissues, 95% CI for the mean; P=0.000 against H4K4-E.

Turning to “rabbit anti-CD3(SP162) antibody (unmodified)”, the Staining Intensity by ImageJ (mean) was 62.
